Source: EP2488198B1 (Rutgers, the State University of New Jersey, dated 2016)

Molecular target: T1, leukocyte function antigen-1 (LFA-1), composed of CD11a and CD18, on the surface of white blood cells (human, UniProt P20701 26-1170; P05107 23-769)
T1 construct: whole, on cells; also called CD11a/CD18; wild type form of the receptor
Assay: flow cytometry, THP-1 cells mixed with LtxA-FITC for 30 min at 0 C

T1 sequence (P20701 26-1170, chain 1 of 2): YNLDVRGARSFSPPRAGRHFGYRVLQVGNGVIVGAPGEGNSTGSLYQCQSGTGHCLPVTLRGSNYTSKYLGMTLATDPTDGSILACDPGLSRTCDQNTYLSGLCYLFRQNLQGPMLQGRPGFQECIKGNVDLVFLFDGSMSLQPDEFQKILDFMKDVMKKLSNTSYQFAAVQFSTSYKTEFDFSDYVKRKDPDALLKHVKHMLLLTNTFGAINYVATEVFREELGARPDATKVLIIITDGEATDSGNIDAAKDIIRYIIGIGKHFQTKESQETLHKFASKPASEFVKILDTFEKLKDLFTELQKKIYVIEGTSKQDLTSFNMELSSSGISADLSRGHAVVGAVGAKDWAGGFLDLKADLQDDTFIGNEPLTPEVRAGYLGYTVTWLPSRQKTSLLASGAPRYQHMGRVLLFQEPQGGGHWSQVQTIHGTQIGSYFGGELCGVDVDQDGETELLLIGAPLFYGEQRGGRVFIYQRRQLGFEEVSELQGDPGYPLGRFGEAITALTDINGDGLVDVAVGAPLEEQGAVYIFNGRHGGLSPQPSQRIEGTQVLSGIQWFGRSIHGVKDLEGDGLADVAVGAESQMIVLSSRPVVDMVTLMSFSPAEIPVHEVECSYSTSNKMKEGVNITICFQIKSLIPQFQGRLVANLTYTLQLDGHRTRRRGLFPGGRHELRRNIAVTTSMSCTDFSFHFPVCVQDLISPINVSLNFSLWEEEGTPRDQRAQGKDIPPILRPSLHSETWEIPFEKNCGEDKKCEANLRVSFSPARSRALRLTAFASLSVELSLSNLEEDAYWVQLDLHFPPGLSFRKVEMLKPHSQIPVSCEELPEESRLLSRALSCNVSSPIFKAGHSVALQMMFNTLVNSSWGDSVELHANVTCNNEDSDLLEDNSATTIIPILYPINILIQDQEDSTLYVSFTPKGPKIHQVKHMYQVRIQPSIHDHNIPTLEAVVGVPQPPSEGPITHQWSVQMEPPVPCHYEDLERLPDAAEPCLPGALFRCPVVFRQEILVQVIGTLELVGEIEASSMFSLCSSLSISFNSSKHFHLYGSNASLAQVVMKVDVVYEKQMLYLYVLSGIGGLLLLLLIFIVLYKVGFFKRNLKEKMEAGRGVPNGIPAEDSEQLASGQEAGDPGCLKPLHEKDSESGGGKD
T1 sequence (P05107 23-769, chain 2 of 2): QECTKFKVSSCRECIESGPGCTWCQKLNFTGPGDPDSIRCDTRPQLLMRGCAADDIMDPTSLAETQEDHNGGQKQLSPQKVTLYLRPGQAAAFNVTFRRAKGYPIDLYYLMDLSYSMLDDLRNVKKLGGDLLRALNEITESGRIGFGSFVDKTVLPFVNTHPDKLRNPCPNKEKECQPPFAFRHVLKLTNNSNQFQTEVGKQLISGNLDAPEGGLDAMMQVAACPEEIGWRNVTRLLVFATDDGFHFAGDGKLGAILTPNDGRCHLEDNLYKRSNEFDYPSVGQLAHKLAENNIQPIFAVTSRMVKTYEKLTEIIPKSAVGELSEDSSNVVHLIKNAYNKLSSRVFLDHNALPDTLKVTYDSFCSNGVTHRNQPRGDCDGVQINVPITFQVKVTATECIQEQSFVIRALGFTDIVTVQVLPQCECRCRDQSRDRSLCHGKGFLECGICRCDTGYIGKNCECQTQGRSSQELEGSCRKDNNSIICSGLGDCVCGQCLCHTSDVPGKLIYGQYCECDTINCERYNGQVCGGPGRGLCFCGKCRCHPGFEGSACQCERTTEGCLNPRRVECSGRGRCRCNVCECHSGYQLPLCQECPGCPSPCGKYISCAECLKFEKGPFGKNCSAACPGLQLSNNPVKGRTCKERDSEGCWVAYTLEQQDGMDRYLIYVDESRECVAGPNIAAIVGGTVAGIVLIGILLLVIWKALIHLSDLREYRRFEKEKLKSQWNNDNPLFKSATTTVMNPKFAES

B1: LtxA covalently labeled with fluorescein isothiocyanate (LtxA-FITC) (other)
chain: MATTSLLNTKQQAAQFANSVADRAKENIDAAKEQLQKALDKLGKTGKKLTLYIKNYKKGNGLTALIKAAQKLGIEVYHEGKDGPALTNGILNTGKKLLGLTERGLTLFAPELDKWIQGNKHLSNSVGSTGNLTKAIDKVQSVLGTLQAFLNTAFSGMDLDALIKARQNGKNVTDVQLAKASLNLINELIGTISSITNNVDTFSKQLNKLGEALGQVKHFGSFGDKLKNLPKLGNLGKGLGALSGVLSAISAALLLANKDADTATKAAAAAELTNKVLGNIGKAITQYLIAQRAAAGLSTTGPVAGLIASVVSLAISPLSFLGIAKQFDRARMLEEYSKRFKKFGYNGDSLLGQFYKNTGIADAAITTINTVLSAIAAGVGAASAGSLVGAPIGLLVSAITSLISGILDASKQAVFEHIANQLADKIKAWENKYGKNYFENGYDARHSAFLEDSLKLFNELREKYKTENILSITQQGWDQRIGELAGITRNGDRIQSGKAYVDYLKKGEELAKHSDKFTKQILDPIKGNIDLSGIKGSTTLTFLNPLLTAGKEERKTRQSGKYEFITELKVKGRTDWKVKGVPNSNGVYDFSNLIQHAVTRDNKVLEARLIANLGAKDDYVFVGSGSTIVNAGDGYDVVDYSKGRTGALTIDGRNATKAGQYKVERDLSGTQVLQETVSKQETKRGKVTDLLEYRNYKLDYYYTNKGFKAHDELNSVEEIIGSTLRDKFYGSKFNDVFHGHDGDDLIYGYDGDDRLYGDNGNDEIHGGQGNDKLYGGAGNDRLFGEYGNNYLDGGEGDDHLEGGNGSDILRGGSGNDKLFGNQGDDLLDGGEGDDQLAGGEGNDIYVYRKEYGHHTITEHSGDKDKLSLANINLKDVSFERNGNDLLLKTNNRTAVTFKGWFSKPNSSAGLDEYQRKLLEYAPEKDRARLKRQFELQRGKVDKSLNNKVEEIIGKDGERITSQDIDNLFDKSGNKKTISPQELAGLIKNKGKSSSLMSSSRSSSMLTQKSGLSNDISRIISATSGFGSSGKALSASPLQTNNNFNSYANSLATTAA
modifications: covalently labeled with fluorescein isothiocyanate (FITC); sites not stated
notes: also called leukotoxin-FITC
  binding result: binds
